Experimental data: patent US20180291335A1, “MODIFIED POLYNUCLEOTIDES FOR ALTERING CELL PHENOTYPE” (ModernaTX, Inc., priority 2012, published 2018)
Several values for one entry are separate records, joined by “and”; a condition that tells them apart may be missing. Equal values may be shown once.

How the values were obtained:
[1] = tested on: peripheral blood mononuclear cells (PBMC); experiment: In vitro screening in PBMC: G-CSF protein expression by ELISA; type: cell-based, human
Summary of the method: (§1)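 ELISA was the detection method, applied to harvested supernatant that had been held frozen beforehand.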

[2] = tested on: interferon-alpha (IFN-alpha); experiment: 2′Fluoro chemistries in PBMC: IFN-alpha production by ELISA; type: cell-based, human; settings: G-CSF modified mRNA
[3] = tested on: tumor necrosis factor-alpha (TNF-alpha); experiment: 2′Fluoro chemistries in PBMC: TNF-alpha production by ELISA; type: cell-based, human; settings: G-CSF modified mRNA
HeLa cells = experiment: G-CSF modified mRNA transfected in HeLa cells, G-CSF ELISA; type: cell-based, human; settings: HeLa cells, ELISA
Summary of the method: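 Human G-CSF mRNAs bearing various chemical modifications, made with a mutant T7 polymerase, were either transfected into HeLa cells or added to rabbit reticulocyte lysate at 250 ng mRNA. G-CSF protein was quantified by ELISA.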

[4] = tested on: tumor necrosis factor alpha (TNF-α); experiment: In vitro screening in PBMC: tumor necrosis factor alpha induction by ELISA; type: cell-based, human
Summary of the method: as §1

interferon-alpha (IFN-α) = experiment: In vitro screening in PBMC: interferon-alpha induction by ELISA; type: cell-based, human
Summary of the method: as §1

rabbit reticulysates = experiment: G-CSF modified mRNA in rabbit reticulysates, G-CSF ELISA; type: biochemical; settings: 250 ng of modified mRNA, listed as 5-methylcytosine/N1-methylpseudouridine
Protocol: To assess the activity of all our different chemical modifications in the context of a second open reading frame, we replicated experiments previously conducted using luciferase mRNA, with human G-CSF mRNA. […] The mutant T7 polymerase was obtained commercially (Durascribe® T7 Transcription kit (Cat. No. DS010925) (Epicentre®, Madison, Wis.).
The modified RNA in Tables 27 and 28 were transfected in vitro in HeLa cells or added to rabbit reticulysates (250 ng of modified mRNA) as indicated. […] In Table 27, “NT” means not tested.

[5] = PBMC Donor 1, 500 ng G-CSF mRNA
[6] = PBMC Donor 2, 500 ng G-CSF mRNA
[7] = PBMC Donor 3, 500 ng G-CSF mRNA
[8] = listed as 5-methylcytidien/N1-methylpseudouridine
[9] = listed as 5-methylcytidine/N1-methylpseudouridine
[10] = PBMC Donor 2, 500 ng G-CSF mRNA, listed as 5-methylcytosine and N1-methylpseudouridine (2nd set)
[11] = PBMC Donor 2, 500 ng G-CSF mRNA, listed as 5-methylcytosine and N1-methylpseudouridine (4th set)
[12] = PBMC Donor 3, 500 ng G-CSF mRNA, listed as 5-methylcytosine and N1-methylpseudouridine (2nd set)
[13] = PBMC Donor 3, 500 ng G-CSF mRNA, listed as 5-methylcytosine and N1-methylpseudouridine (4th set)

B1: 5-methylcytosine and N1-methyl-pseudouridine (1^st set): G-CSF mRNA (SEQ ID NO: 408) fully modified with 5-methylcytosine and N1-methylpseudouridine; repeated sets/tests (nucleic acid)
chain: GGGAAAUAAGAGAGAAAAGAAGAGUAAGAAGAAAUAUAAGAGCCACCAUGGCCGGUCCCGCGACCCAAAGCCCCAUGAAACUUAUGGCCCUGCAGUUGCUGCUUUGGCACUCGGCCCUCUGGACAGUCCAAGAAGCGACUCCUCUCGGACCUGCCUCAUCGUUGCCGCAGUCAUUCCUUUUGAAGUGUCUGGAGCAGGUGCGAAAGAUUCAGGGCGAUGGAGCCGCACUCCAAGAGAAGCUCUGCGCGACAUACAAACUUUGCCAUCCCGAGGAGCUCGUACUGCUCGGGCACAGCUUGGGGAUUCCCUGGGCUCCUCUCUCGUCCUGUCCGUCGCAGGCUUUGCAGUUGGCAGGGUGCCUUUCCCAGCUCCACUCCGGUUUGUUCUUGUAUCAGGGACUGCUGCAAGCCCUUGAGGGAAUCUCGCCAGAAUUGGGCCCGACGCUGGACACGUUGCAGCUCGACGUGGCGGAUUUCGCAACAACCAUCUGGCAGCAGAUGGAGGAACUGGGGAUGGCACCCGCGCUGCAGCCCACGCAGGGGGCAAUGCCGGCCUUUGCGUCCGCGUUUCAGCGCAGGGCGGGUGGAGUCCUCGUAGCGAGCCACCUUCAAUCAUUUUUGGAAGUCUCGUACCGGGUGCUGAGACAUCUUGCGCAGCCGUGAAGCGCUGCCUUCUGCGGGGCUUGCCUUCUGGCCAUGCCCUUCUUCUCUCCCUUGCACCUGUACCUCUUGGUCUUUGAAUAAAGCCUGAGUAGGAAG
modifications: 5-methylcytosine/N1-methylpseudouridine modified; Description of Artificial Sequence: Synthetic Transcript Sequence
notes: repeated sets/tests
G-CSF Protein Expression [1, 5]: 10,232 pg/ml
G-CSF Protein Expression ([1]; PBMC Donor 1, 500 ng G-CSF mRNA, listed as 5-methylcytosine and N1-methyl-pseudouridine (2nd set)): 9,564 pg/ml
G-CSF Protein Expression ([1]; PBMC Donor 1, 500 ng G-CSF mRNA, listed as 5-methylcytosine and N1-methyl-pseudouridine (4th set)): 9,505 pg/ml
G-CSF Protein Expression [1, 6]: 7,245 pg/ml
G-CSF Protein Expression ([1]; PBMC Donor 2, 500 ng G-CSF mRNA, listed as 5-methylcytosine and N1-methyl-pseudouridine (2nd set)): 8,509 pg/ml
G-CSF Protein Expression ([1]; PBMC Donor 2, 500 ng G-CSF mRNA, listed as 5-methylcytosine and N1-methyl-pseudouridine (4th set)): 6,927 pg/ml
G-CSF Protein Expression [1, 7]: 6,214 pg/ml
G-CSF Protein Expression ([1]; PBMC Donor 3, 500 ng G-CSF mRNA, listed as 5-methylcytosine and N1-methyl-pseudouridine (2nd set)): 7,141 pg/ml
G-CSF Protein Expression ([1]; PBMC Donor 3, 500 ng G-CSF mRNA, listed as 5-methylcytosine and N1-methyl-pseudouridine (4th set)): 5,405 pg/ml
IFN-alpha: 3 Donor Average [2, 8]: 35 pg/mL
IFN-alpha: 3 Donor Average [2, 9]: 31 pg/mL
TNF-alpha: 2 Donor Average [3, 8]: 3 pg/mL
TNF-alpha: 2 Donor Average [3, 9]: 280 pg/mL
G-CSF protein (pg/ml) HeLa cells (HeLa cells; G-CSF mRNA, listed as 5-methylcytosine/N1-methylpseudouridine, Control): 1,106,591 pg/ml
G-CSF protein (pg/ml) HeLa cells (HeLa cells; G-CSF mRNA, listed as 5-methylcytosine/N1-methylpseudouridine, Test A): 1,534,318 pg/ml
G-CSF protein (pg/ml) HeLa cells (HeLa cells; G-CSF mRNA, listed as 5-methylcytosine/N1-methylpseudouridine, Test B): 1,568,636 pg/ml
G-CSF protein (pg/ml) HeLa cells (HeLa cells; G-CSF mRNA, listed as 5-methylcytosine/N1-methylpseudouridine, Test D): 1,168,864 pg/ml
G-CSF protein (pg/ml) HeLa cells (HeLa cells; combination chemistries, listed as 5-methylcytidine/N1-methylpseudouridine): 747,045 pg/ml and 689,091 pg/ml
G-CSF protein (pg/ml) HeLa cells (HeLa cells; combination chemistries, listed as 5-methylcytosine/N1-methylpseudouridine): 1,017,727 pg/ml
G-CSF protein (pg/ml) HeLa cells (HeLa cells; combination chemistries, listed as 5-methylcytosine/N1-methylpseudouridine, Control 1): 848,409 pg/ml
G-CSF protein (pg/ml) HeLa cells (HeLa cells; combination chemistries, listed as 5-methylcytosine/N1-methylpseudouridine, Control 2): 581,818 pg/ml
TNF-α Expression [4, 5]: 54 pg/mL
TNF-α Expression ([4]; PBMC Donor 1, 500 ng G-CSF mRNA, listed as 5-methylcytosine and N1-methylpseudouridine (2nd set)): 54 pg/mL
TNF-α Expression ([4]; PBMC Donor 1, 500 ng G-CSF mRNA, listed as 5-methylcytosine and N1-methylpseudouridine (4th set)): 36 pg/mL
TNF-α Expression [4, 6]: 79 pg/mL
TNF-α Expression [4, 10]: 97 pg/mL
TNF-α Expression [4, 11]: 14 pg/mL
TNF-α Expression [4, 7]: 126 pg/mL
TNF-α Expression [4, 12]: 149 pg/mL
TNF-α Expression [4, 13]: 13 pg/mL
IFN-α Expression (interferon-alpha (IFN-α); [5]): 0 pg/mL
IFN-α Expression (interferon-alpha (IFN-α); [6]): 60 pg/mL
IFN-α Expression (interferon-alpha (IFN-α); [10]): 66 pg/mL
IFN-α Expression (interferon-alpha (IFN-α); [11]): 0 pg/mL
IFN-α Expression (interferon-alpha (IFN-α); [7]): 136 pg/mL
IFN-α Expression (interferon-alpha (IFN-α); [12]): 140 pg/mL
IFN-α Expression (interferon-alpha (IFN-α); [13]): 0 pg/mL
G-CSF protein (pg/ml) Rabbit reticulysates cells (rabbit reticulysates; Test A): 110,500 pg/ml
G-CSF protein (pg/ml) Rabbit reticulysates cells (rabbit reticulysates; Test B): 76,750 pg/ml
G-CSF protein (pg/ml) Rabbit reticulysates cells (rabbit reticulysates; Test D): 97,125 pg/ml
